Assay results: patent US20220010021A1 (Sanofi, published 2022)

T1: beta-Klotho (KLB) (Homo sapiens (Human), UniProt Q86Z14 1-996)
T1 construct: also called β-Klotho; not shown: C-terminal His tag of the bought R&D Systems protein
T1 sequence: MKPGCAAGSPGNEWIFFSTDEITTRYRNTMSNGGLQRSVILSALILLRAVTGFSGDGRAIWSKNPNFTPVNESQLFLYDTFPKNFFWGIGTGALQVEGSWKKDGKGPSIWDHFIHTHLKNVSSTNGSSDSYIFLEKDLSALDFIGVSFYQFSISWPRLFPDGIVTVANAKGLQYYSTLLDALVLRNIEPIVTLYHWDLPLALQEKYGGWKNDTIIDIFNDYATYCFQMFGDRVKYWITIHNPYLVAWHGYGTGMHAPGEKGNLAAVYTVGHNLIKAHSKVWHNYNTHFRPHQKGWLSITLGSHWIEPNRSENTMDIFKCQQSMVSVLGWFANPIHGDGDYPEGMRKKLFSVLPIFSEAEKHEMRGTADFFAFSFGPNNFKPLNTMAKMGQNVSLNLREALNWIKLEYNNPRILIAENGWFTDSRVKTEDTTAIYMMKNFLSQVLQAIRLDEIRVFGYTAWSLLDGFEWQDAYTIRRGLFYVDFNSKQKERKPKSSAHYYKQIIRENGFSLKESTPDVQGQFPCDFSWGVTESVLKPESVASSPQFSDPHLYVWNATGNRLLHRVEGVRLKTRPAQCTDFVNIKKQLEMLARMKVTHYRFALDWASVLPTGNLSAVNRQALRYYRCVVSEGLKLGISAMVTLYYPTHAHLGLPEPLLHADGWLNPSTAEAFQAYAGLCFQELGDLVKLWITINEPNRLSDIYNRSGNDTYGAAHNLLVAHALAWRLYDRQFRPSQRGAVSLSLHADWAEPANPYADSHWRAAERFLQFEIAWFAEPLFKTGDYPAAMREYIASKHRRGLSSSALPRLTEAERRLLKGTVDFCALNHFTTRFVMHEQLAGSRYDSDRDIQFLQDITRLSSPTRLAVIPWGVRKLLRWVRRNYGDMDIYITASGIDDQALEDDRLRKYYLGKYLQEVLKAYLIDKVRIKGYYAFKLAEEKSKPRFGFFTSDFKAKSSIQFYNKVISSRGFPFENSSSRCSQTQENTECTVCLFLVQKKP

B1: 16H7 variant with light chain substitution S94G (antibody, human IgG4 S228P, lambda, V domains shown)
VH: not shown
VL: SYVLTQPPSVSVAPGQTARITCGGNNIGSESVHWYQQKPGQAPVLVVYDDSDRPSGIPERFSGSNSGNTATLTISRVEAGDEADYYCQVWDGNGDHVVFGGGTKLTVLG
notes: IgG4 backbone was used
B2: 16H7 variant with light chain substitution H96L (antibody, human IgG4 S228P, lambda, V domains shown)
VH: not shown
VL: SYVLTQPPSVSVAPGQTARITCGGNNIGSESVHWYQQKPGQAPVLVVYDDSDRPSGIPERFSGSNSGNTATLTISRVEAGDEADYYCQVWDGNSDLVVFGGGTKLTVLG
notes: IgG4 backbone was used
B3: 16H7 variant with light chain substitution N93C (antibody, human IgG4 S228P, lambda, V domains shown)
VH: not shown
VL: SYVLTQPPSVSVAPGQTARITCGGNNIGSESVHWYQQKPGQAPVLVVYDDSDRPSGIPERFSGSNSGNTATLTISRVEAGDEADYYCQVWDGCSDHVVFGGGTKLTVLG
notes: IgG4 backbone was used
B4: 16H7 variant with light chain substitution H96E (antibody, human IgG4 S228P, lambda, V domains shown)
VH: not shown
VL: SYVLTQPPSVSVAPGQTARITCGGNNIGSESVHWYQQKPGQAPVLVVYDDSDRPSGIPERFSGSNSGNTATLTISRVEAGDEADYYCQVWDGNSDEVVFGGGTKLTVLG
notes: IgG4 backbone was used
B5: 16H7 variant with light chain substitution D95M (antibody, human IgG4 S228P, lambda, V domains shown)
VH: not shown
VL: SYVLTQPPSVSVAPGQTARITCGGNNIGSESVHWYQQKPGQAPVLVVYDDSDRPSGIPERFSGSNSGNTATLTISRVEAGDEADYYCQVWDGNSMHVVFGGGTKLTVLG
notes: IgG4 backbone was used
B6: 16H7 variant with light chain substitution N93A (antibody, human IgG4 S228P, lambda, V domains shown)
VH: not shown
VL: SYVLTQPPSVSVAPGQTARITCGGNNIGSESVHWYQQKPGQAPVLVVYDDSDRPSGIPERFSGSNSGNTATLTISRVEAGDEADYYCQVWDGASDHVVFGGGTKLTVLG
notes: IgG4 backbone was used
B7: 16H7 variant with light chain substitution H96N (antibody, human IgG4 S228P, lambda, V domains shown)
VH: not shown
VL: SYVLTQPPSVSVAPGQTARITCGGNNIGSESVHWYQQKPGQAPVLVVYDDSDRPSGIPERFSGSNSGNTATLTISRVEAGDEADYYCQVWDGNSDNVVFGGGTKLTVLG
notes: IgG4 backbone was used
B8: 16H7 variant with light chain substitution D95I (antibody, human IgG4 S228P, lambda, V domains shown)
VH: not shown
VL: SYVLTQPPSVSVAPGQTARITCGGNNIGSESVHWYQQKPGQAPVLVVYDDSDRPSGIPERFSGSNSGNTATLTISRVEAGDEADYYCQVWDGNSIHVVFGGGTKLTVLG
notes: IgG4 backbone was used
B9: 16H7 variant with light chain substitution H96K (antibody, human IgG4 S228P, lambda, V domains shown)
VH: not shown
VL: SYVLTQPPSVSVAPGQTARITCGGNNIGSESVHWYQQKPGQAPVLVVYDDSDRPSGIPERFSGSNSGNTATLTISRVEAGDEADYYCQVWDGNSDKVVFGGGTKLTVLG
notes: IgG4 backbone was used
B10: 16H7 variant with light chain substitution H96Q (antibody, human IgG4 S228P, lambda, V domains shown)
VH: not shown
VL: SYVLTQPPSVSVAPGQTARITCGGNNIGSESVHWYQQKPGQAPVLVVYDDSDRPSGIPERFSGSNSGNTATLTISRVEAGDEADYYCQVWDGNSDQVVFGGGTKLTVLG
notes: IgG4 backbone was used
B11: 16H7 variant with light chain substitution H96V (antibody, human IgG4 S228P, lambda, V domains shown)
VH: not shown
VL: SYVLTQPPSVSVAPGQTARITCGGNNIGSESVHWYQQKPGQAPVLVVYDDSDRPSGIPERFSGSNSGNTATLTISRVEAGDEADYYCQVWDGNSDVVVFGGGTKLTVLG
notes: IgG4 backbone was used
B12: 16H7 variant with light chain substitution D95A (antibody, human IgG4 S228P, lambda, V domains shown)
VH: not shown
VL: SYVLTQPPSVSVAPGQTARITCGGNNIGSESVHWYQQKPGQAPVLVVYDDSDRPSGIPERFSGSNSGNTATLTISRVEAGDEADYYCQVWDGNSAHVVFGGGTKLTVLG
notes: IgG4 backbone was used
B13: 16H7 variant with light chain substitution H96T (antibody, human IgG4 S228P, lambda, V domains shown)
VH: not shown
VL: SYVLTQPPSVSVAPGQTARITCGGNNIGSESVHWYQQKPGQAPVLVVYDDSDRPSGIPERFSGSNSGNTATLTISRVEAGDEADYYCQVWDGNSDTVVFGGGTKLTVLG
notes: IgG4 backbone was used
B14: 16H7 variant with light chain substitution H96Y (antibody, human IgG4 S228P, lambda, V domains shown)
VH: not shown
VL: SYVLTQPPSVSVAPGQTARITCGGNNIGSESVHWYQQKPGQAPVLVVYDDSDRPSGIPERFSGSNSGNTATLTISRVEAGDEADYYCQVWDGNSDYVVFGGGTKLTVLG
notes: IgG4 backbone was used
B15: 16H7 variant with light chain substitution D95Y (antibody, human IgG4 S228P, lambda, V domains shown)
VH: not shown
VL: SYVLTQPPSVSVAPGQTARITCGGNNIGSESVHWYQQKPGQAPVLVVYDDSDRPSGIPERFSGSNSGNTATLTISRVEAGDEADYYCQVWDGNSYHVVFGGGTKLTVLG
notes: IgG4 backbone was used
B16: 16H7 variant with light chain substitution H96S (antibody, human IgG4 S228P, lambda, V domains shown)
VH: not shown
VL: SYVLTQPPSVSVAPGQTARITCGGNNIGSESVHWYQQKPGQAPVLVVYDDSDRPSGIPERFSGSNSGNTATLTISRVEAGDEADYYCQVWDGNSDSVVFGGGTKLTVLG
notes: IgG4 backbone was used
B17: 16H7 variant with light chain substitution H96R (antibody, human IgG4 S228P, lambda, V domains shown)
VH: not shown
VL: SYVLTQPPSVSVAPGQTARITCGGNNIGSESVHWYQQKPGQAPVLVVYDDSDRPSGIPERFSGSNSGNTATLTISRVEAGDEADYYCQVWDGNSDRVVFGGGTKLTVLG
notes: IgG4 backbone was used
B18: 16H7 variant with light chain substitution H96G (antibody, human IgG4 S228P, lambda, V domains shown)
VH: not shown
VL: SYVLTQPPSVSVAPGQTARITCGGNNIGSESVHWYQQKPGQAPVLVVYDDSDRPSGIPERFSGSNSGNTATLTISRVEAGDEADYYCQVWDGNSDGVVFGGGTKLTVLG
notes: IgG4 backbone was used
B19: 16H7 variant with light chain substitution H96W (antibody, human IgG4 S228P, lambda, V domains shown)
VH: not shown
VL: SYVLTQPPSVSVAPGQTARITCGGNNIGSESVHWYQQKPGQAPVLVVYDDSDRPSGIPERFSGSNSGNTATLTISRVEAGDEADYYCQVWDGNSDWVVFGGGTKLTVLG
notes: IgG4 backbone was used
B20: 16H7 variant with light chain substitution D95H (antibody, human IgG4 S228P, lambda, V domains shown)
VH: not shown
VL: SYVLTQPPSVSVAPGQTARITCGGNNIGSESVHWYQQKPGQAPVLVVYDDSDRPSGIPERFSGSNSGNTATLTISRVEAGDEADYYCQVWDGNSHHVVFGGGTKLTVLG
notes: IgG4 backbone was used
B21: 16H7 variant with light chain substitution H96D (antibody, human IgG4 S228P, lambda, V domains shown)
VH: not shown
VL: SYVLTQPPSVSVAPGQTARITCGGNNIGSESVHWYQQKPGQAPVLVVYDDSDRPSGIPERFSGSNSGNTATLTISRVEAGDEADYYCQVWDGNSDDVVFGGGTKLTVLG
notes: IgG4 backbone was used

Assays:
[1] = target: cell surface receptor composed of the tyrosine kinase receptor FGFR1c and co-receptor beta-Klotho (KLB) (human, UniProt P11362 22-822; Q86Z14 1-1044); assay: cell-based or functional assay
[2] = target: T1, beta-Klotho (KLB); assay: BLI (Octet) off-rate screening, mAb from supernatant on anti-hIgG Fc sensor, 5 nmol/L KLB;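 note: dissociation followed for 1800 s in D-PBS plus 0.1% BSA, antibody supernatants applied at 25 µg/mL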

Chain of cell surface receptor composed of the tyrosine kinase receptor FGFR1c and co-receptor beta-Klotho (KLB) (P11362 22-822, one chain of several): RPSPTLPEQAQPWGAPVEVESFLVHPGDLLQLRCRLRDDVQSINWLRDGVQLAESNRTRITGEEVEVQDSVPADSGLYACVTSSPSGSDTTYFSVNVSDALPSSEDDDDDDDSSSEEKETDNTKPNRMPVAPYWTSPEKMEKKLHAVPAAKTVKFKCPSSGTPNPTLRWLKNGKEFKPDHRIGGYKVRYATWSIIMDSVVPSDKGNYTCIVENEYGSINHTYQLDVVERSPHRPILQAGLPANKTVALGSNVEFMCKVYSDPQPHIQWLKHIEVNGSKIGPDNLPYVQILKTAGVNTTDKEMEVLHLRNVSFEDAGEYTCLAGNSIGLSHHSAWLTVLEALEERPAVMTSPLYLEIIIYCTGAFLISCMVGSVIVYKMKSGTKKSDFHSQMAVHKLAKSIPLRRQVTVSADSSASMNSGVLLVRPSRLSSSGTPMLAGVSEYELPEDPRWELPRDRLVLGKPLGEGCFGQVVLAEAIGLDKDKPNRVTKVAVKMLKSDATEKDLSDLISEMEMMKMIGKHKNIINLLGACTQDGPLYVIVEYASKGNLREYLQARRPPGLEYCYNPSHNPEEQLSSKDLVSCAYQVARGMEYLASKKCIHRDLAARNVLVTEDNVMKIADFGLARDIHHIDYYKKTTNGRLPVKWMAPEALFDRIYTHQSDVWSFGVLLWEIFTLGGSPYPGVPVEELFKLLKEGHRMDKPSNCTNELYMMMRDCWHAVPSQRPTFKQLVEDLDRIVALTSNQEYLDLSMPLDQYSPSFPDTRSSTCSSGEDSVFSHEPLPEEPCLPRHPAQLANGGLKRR

Binder	Mean E max, Luciferase gene reporter assay [1]	Mean EC50, Luciferase gene reporter assay [1]	koff [2]
B1	100%	146 pM	6.8e-05 s⁻¹
B2	98%	176 pM	0.00013 s⁻¹
B3	107%	148 pM	5.8e-05 s⁻¹
B4	100%	122 pM	1.1e-05 s⁻¹
B5	8%		1.4e-05 s⁻¹
B6	101%	108 pM	7.5e-06 s⁻¹
B7	112%	143 pM	4.4e-05 s⁻¹
B8	4%		0.00016 s⁻¹
B9	98%	179 pM	6.4e-05 s⁻¹
B10	104%	106 pM	5e-05 s⁻¹
B11	91%	130 pM	4.1e-05 s⁻¹
B12	12%		0.0002 s⁻¹
B13	110%	110 pM	1.8e-05 s⁻¹
B14	103%	134 pM	6.9e-05 s⁻¹
B15	4%		0.00013 s⁻¹
B16	102%	97 pM	3e-05 s⁻¹
B17	102%	95 pM	0.00014 s⁻¹
B18	95%	130 pM	0.00015 s⁻¹
B19	103%	155 pM	0.00012 s⁻¹
B20	33%	29700 pM	8.1e-06 s⁻¹
B21	100%	111 pM	2.2e-05 s⁻¹
